The source of these data is US20080306243A1, “Hla-Binding Peptide, and Dna Fragment and Recombinant Vector Coding for Said Hla-Binding Peptide” (NEC CORPORATION, priority 2005, published 2008).

Where two headings read alike, the source gives them in different places.

For experiment [1], the target named is HLA-A0206 molecule, which is a product of the HLA-A*0206 gene (human). Kind of experiment: flow cytometry; peptide stabilisation of empty HLA-A0206 on RA2.6 cells (TAP-deficient), stained with mAb 17A10 or 17A12.
Experiment [2] has as its target HLA-A2402 molecule, which is a product of the HLA-A*2402 gene (human). Kind of experiment: flow cytometry; reassociation of peptide, added β2m and HLA-A2402 on acid-stripped C1R-A24 cells, stained with mAb 17A12.
For experiment [3], the target named is HLA-A0201 molecule, which is a product of the HLA-A*0201 gene (human). Description: flow cytometry; reassociation of peptide, added β2m and HLA-A0201 on acid-stripped JY cells, stained with mAb BB7.2. To be noted: remark: other sources report otherwise.
The mark [4] stands for this setting: remark: other sources report otherwise.

In the case of DLPTQEPAL (modifications not checked) [SEQ ID NO 27], the -log Kd in experiment [1] is 5.26 -log Kd. In the case of WVPVVFLTL (modifications not checked) [SEQ ID NO 2], in experiment [2], the -log Kd is 7.29 -log Kd.

Consider GVLVHPQWV (modifications not checked) [SEQ ID NO 19], for which the -log Kd in experiment [1] was 6.28 -log Kd. As for LVASRGRAV (modifications not checked) [SEQ ID NO 22], the -log Kd in experiment [1] is 5.25 -log Kd. Take MLLRLSEPA [SEQ ID NO 17]: in experiment [3], the -log Kd is 6.2 -log Kd. Consider WVLTAAHCI [SEQ ID NO 12], for which the -log Kd in experiment [2] (setting [4]) was 4.63 -log Kd. Regarding WVPVVFLTL (modifications not checked) [SEQ ID NO 24], the -log Kd in experiment [1] is 6.74 -log Kd. Turning to DLPTQEPAL (modifications not checked) [SEQ ID NO 4], in experiment [2] (setting [4]), the -log Kd was 5.23 -log Kd.
